Source: patent US8586538B2, “Method of treating a patient suffering from a bleeding disorder comprising administering an antibody against the A3-C1 of FVIII” (Stichting Sanquin Bloedvoorziening, priority 2002, dated 2013)

Columns and labels:
[1] = target: T1, FVIII/FV^1811-1818 chimera (Homo sapiens, UniProt P00451, E1830S/F1835V/K1832Y/K1837H/T1831S); test: SPR binding of scFv KM41 to FVIII/FV^1811-1818 light chain chimera; conditions: scFv 40 nM
T1 construct: FVIII/FV^1811-1818 light chain chimera and wild-type FVIII light chain were purified employing Q-Sepharose chromatography; made in house; host or cells: murine fibroblasts (C127) cells
T1 sequence (P00451 1668-2351 E1830S/T1831S/K1832Y/F1835V/K1837H limits assumed): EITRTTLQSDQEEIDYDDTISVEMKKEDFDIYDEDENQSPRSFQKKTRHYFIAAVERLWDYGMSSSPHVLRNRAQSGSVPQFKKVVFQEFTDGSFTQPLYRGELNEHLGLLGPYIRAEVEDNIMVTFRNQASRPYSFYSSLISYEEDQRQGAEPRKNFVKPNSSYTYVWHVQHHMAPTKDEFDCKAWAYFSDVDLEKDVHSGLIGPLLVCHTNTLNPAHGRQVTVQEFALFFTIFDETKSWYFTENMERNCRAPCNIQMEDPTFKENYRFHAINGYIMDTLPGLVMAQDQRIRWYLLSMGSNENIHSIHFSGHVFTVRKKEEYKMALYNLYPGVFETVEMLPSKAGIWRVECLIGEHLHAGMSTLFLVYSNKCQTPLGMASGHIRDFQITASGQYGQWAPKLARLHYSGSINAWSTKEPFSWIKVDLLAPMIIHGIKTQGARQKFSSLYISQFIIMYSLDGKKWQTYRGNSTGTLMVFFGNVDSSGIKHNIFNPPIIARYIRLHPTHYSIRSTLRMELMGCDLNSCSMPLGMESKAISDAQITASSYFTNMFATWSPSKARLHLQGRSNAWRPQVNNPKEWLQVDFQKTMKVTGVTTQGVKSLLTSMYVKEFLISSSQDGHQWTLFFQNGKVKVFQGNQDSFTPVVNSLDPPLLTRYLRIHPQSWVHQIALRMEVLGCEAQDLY
Procedure: (§1) FIG. 7. Binding of scFv KM41 to the FVIII/FV^1811-1818 light chain chimera. ScFv EL14 at a CM5 sensor chip (67 fmol/mm^2) was incubated with either the recombinant wild-type FVIII light chain or the recombinant FVIII/FV^1811-1818 chimera till a density of 20 fmol/mm^2, in 150 mM NaCl, 50 mM Tris (pH 7.4). ScFv KM41 (40 nM) was passed over two separate channels with immobilized intact FVIII light chain (I) or FVIII/FV^1811-1818 chimera (II), respectively. Response is indicated as Resonance Units (RU) and is corrected for nonspecific binding.
(§2) The kinetics of protein interactions was determined by surface plasmon resonance (SPR) analysis, employing a BIAcore™2000 biosensor system (Biacore AS, Uppsala, Sweden). […] Association of analyte was assessed in 150 mM NaCl, 2 mM CaCl2, 0.005% (v/v) Tween® 20, and 20 mM Hepes (pH 7.4) for 2 min, at a flow rate of 20 μl/min at 25° C. […] The association (kon) and dissociation (koff) rate constants were determined by using the BIAevaluation software 3.1 (Biacore AB, Uppsala, Sweden). […] Equilibrium dissociation constants (kd) were calculated from the ratio koff/kon. […]

[2] = target: T2, wild-type recombinant FVIII light chain (Homo sapiens, UniProt P00451); test: SPR binding of scFv KM41 to wild-type recombinant FVIII light chain; conditions: scFv 40 nM
T2 construct: FVIII/FV^1811-1818 light chain chimera and wild-type FVIII light chain were purified employing Q-Sepharose chromatography; made in house; host or cells: murine fibroblasts (C127) cells
T2 sequence (P00451 1668-2351 limits assumed): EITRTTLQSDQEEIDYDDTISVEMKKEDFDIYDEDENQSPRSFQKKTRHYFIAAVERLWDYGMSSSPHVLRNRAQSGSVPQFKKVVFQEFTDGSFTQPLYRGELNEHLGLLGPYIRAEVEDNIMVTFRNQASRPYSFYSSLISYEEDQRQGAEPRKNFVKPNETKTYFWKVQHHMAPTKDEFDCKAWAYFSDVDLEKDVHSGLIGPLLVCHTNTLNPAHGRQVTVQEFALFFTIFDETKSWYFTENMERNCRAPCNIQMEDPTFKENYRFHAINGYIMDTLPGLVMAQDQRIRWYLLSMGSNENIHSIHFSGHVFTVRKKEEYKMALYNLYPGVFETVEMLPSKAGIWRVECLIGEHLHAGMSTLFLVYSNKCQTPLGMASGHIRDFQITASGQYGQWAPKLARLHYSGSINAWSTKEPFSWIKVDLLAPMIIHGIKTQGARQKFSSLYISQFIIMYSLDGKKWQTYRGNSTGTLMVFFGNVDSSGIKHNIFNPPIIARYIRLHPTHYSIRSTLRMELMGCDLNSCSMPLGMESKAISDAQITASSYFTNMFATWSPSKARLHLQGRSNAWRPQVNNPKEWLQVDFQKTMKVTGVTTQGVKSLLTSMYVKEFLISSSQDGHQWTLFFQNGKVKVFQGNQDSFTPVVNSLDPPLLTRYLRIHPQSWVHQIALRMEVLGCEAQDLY
Procedure: as §1, §2

B1: scFv KM41: scFv antibody fragment directed against FVIII region Arg^1803-Lys^1818 (protein)
scFv: QVQLLQSAADVKKPGASVKVSCTASGYIFTSYDIDWVRQATGQGLEWMGWMNPNSGNAGFAQKFKGRLTLTRDTSTSTAYMELRRLESEDTAVYYCARSTPHSYSGSGLPPTSDSWGQGTLVTVSSGGGGSGGGGSGGGGSEIVLTQSPGTLSLSPGERATLSCRASQSVSSSFLGWYQQKPGQAPRLLIYGASSRATGIPDRFSGSGSGTDFTLTISRLEPEDFAVYYCQQYGISPLTFGGGTKLEIKRAAAEQKLISEEDLNGAAHHHHHH
B1 was tested, and the “Binding of scFv to immobilized FVIII/FV^1811-1818 chimera” value [1] was “did not recognize” and the “Binding of scFv to immobilized wild-type recombinant FVIII light chain” value [2] was “readily reacted”.
